Laboratory results from patent US20240358834A1 (University of Pennsylvania, published 2024).

T1: human CD19 protein with a biotinylated AviTag (Acrobiosystems) (human, UniProt P15391 20-291, biotinylated AviTag)
T1 construct: Captured on streptavidin-coated microplate wells; also called biotinylated-AviTag-CD19; hCD19; not shown: AviTag
T1 sequence (looked up): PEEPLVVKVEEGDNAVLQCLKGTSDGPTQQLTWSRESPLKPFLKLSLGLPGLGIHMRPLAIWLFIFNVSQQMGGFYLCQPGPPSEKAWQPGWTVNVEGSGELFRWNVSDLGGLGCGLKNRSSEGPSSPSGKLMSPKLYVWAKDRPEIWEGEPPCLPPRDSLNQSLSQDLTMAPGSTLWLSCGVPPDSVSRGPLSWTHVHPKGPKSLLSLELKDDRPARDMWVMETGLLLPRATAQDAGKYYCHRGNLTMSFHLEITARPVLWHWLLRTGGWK

B1: scFv 1 (scFv)
scFv: QAVLNQPASVSAALGQRVTISCNTNIGSPYDVQWYQQLPGKSPKTIIYGNSNRPSGVPVRFSGSKSGSTATLTIAGIQAEDEADYYCQSYDDSLDGRVVFGGGTQLTVLGGGSSRSSSSGGGGSGGGGEVQLVESGGDLVKPGGSLRLSCVASGFTFSNHEMYWVRQAPGKGLEWVARIYDSGSRTRYADAVKGRFTISRDNAKNTLYLQMNSLTAEDTAVYFCAGGNSRGWTEFGMDYWGPGTLVTVSSASTTAPSVTSGQAGQHHHHHHGAYPYDVPDYAS
notes: Canine scFv (VL-linker-VH); also called scFv_01; P3-15
B2: scFv 10 (scFv)
scFv: QAVLNQPASVSGALGQTVTISCSGSHTNIGSGFDVQWYQQLPGKSPQTIIYANINRPSGVPARFSGSKSGSTATLTITGVQAEDEADYHCQSFDDDLDGPVFGGGTHLTVLGGGSSRSSSSGGGGSGGGGEVQLVQSGGDLVKPGGSLKISCVASGLTFNRNYMTWIRQAPGKGLQWVSEINPDGSTTSYTDAVRGRFTISRDNAKNTLYLQMNSMRDEDTAVYYCARSSWGSFDYWGQGTLVTVSSASTTAPSVTSGQAGQHHHHHHGAYPYDVPDYAS
notes: Canine scFv (VL-linker-VH); also called P3-01
B3: scFv 11 (scFv)
scFv: QPVLTQPPSVSGALGQTVTISCSGSHTNIGSGFDVQWYQQLPGKSPQTLVYANINRPSGVPARFSGSKSGSTATLTITGVQAEDEADYYCQSYDDNFDYVFGSGTQLTVLGGGSSRSSSSGGGGSGGGGEVQLVESGGDLVKPGGSLRLSCVASGFTFSDYSMSWVRQSPGKGLQWVAAIMTSGSTYYADAVKGRFTISRDNAKNTLYLQMDSLRAEDTAVYYCAHDYWFDFWGQGTLVTVSSASTTAPSVTSGQAGQHHHHHHGAYPYDVPDYAS
notes: Canine scFv (VL-linker-VH); also called P3-57
B4: scFv 12 (scFv)
scFv: SYELTQPPSATVTLRQTARLTCGGENIGRKSVQWYQQKPGQSPLLIIYADSSRPSGIPERFSGANSGNTASLTISGALAEDEADYYCQIWDRNINVFGSGTQLTVLGGGSSRSSSSGGGGSGGGGEEQLVEFGGDLVKPAGSLRLSCVASGFTFSSYDMSWVRQAPGKGLQWVATISYDGSSTYYTDAVKGRFTVSRDNAKNTLYLQMNSLRAEDTALYYCAKDSGSWSHFYGLDTWGHGTSVFVSSASTTAPSVTSGQAGQHHHHHHGAYPYDVPDYAS
notes: Canine scFv (VL-linker-VH); also called P3-48
B5: scFv 13 (scFv)
scFv: QPVLTQPPSVSGALGQTVTISCSGSHTNIGSGFDVQWYQQLPGKSPQTLVYANINRPSGVPARFSGSKSGSTATLTITGVQAEDEADYYCQSYDDNFDYVFGSGTQLTVLGGGSSRSSSSGDGGSGGGGEVQLVESGGGLMKPGGSLKLSCLASGFTFSRYYMYWVRQAPGKGLQWVAQISSDGRRTYYADAVQGRFTISRDNVKNTVYLQMNSLSDEDTAVYYCVREDYFDFDYWGQGTLVTVSSASTTAPSVTSGQAGQHHHHHHGAYPYDVPDYAS
notes: Canine scFv (VL-linker-VH); also called P3-36; P3-38
B6: scFv 14 (scFv)
scFv: QSVLNQPPSVSAALGQRITISCTGSHTNIGSGYDVQWYQQLPGKSPRTIIYGNSDRPSGVPVRFSGSKSGNTATLTITGIQAEDEADYYCQSYDDNLNDPYVFGSGTQLTVLGGGSSRSSSSGGGGSGGGGEVQLVQSGGDLVKPGGSLRLSCVASGFAFSGKTMQWVRQAPGKGLQWVAYIQHDGSRTSYADAVKGRFTISRDNAKNTLYLQMDSLRAEDTAVYYCADHPWYGPEYWGQGTPVTVSSESPSPPNLTSGQAGQHHHHHHGAYPYDVPDYAS
notes: Canine scFv (VL-linker-VH); also called P3-58
B7: scFv 15 (scFv)
scFv: SYELTQPPSVSAALGQGVTISCIGSDTNIGNHYDVQWYQQLPGKSPRTIIYGNSDRPSGVPGRFSGSKSGNTATLTITGIQAEDEADYHCQSYDDDLDGHIVFGGGTHLTVLGGGSSRSSSSGGGGSGGGGEVQLVQSGGDLVKPGGSLRLSCVASGFTFNKYHMSWVRQAPGKGLQWVGKITSDGSATGYADAVKGRFTISRDNAKNTFYLQMDSLRAEDTAMYYCARDQSSWGTGNFDYWGQGTLVTVSSASTTAPSVTSGQAGQHHHHHHGAYPYDVPDYAS
notes: Canine scFv (VL-linker-VH); also called P3-59A
B8: scFv 16 (scFv)
scFv: QSVLTQPTSVSGSLGQRVTISCTGSSSNVGYGNYVGWYQQLPGTGPRTLIYGSHYRPSGVPDRFSGSSSGSSATLTISGLQAEDEADYYCSSYDSTLSGYVFGSGTQLTILGGGSSRSSSSGGGGSGGGGEVQLVESGGDLVKPGGSLRLSCVGSGFTLSSYWMSWVRQAPGKGLQWIAEISGSGNTIYYGDAVKGRFTISRDNAKNTLYLQMNSLRDEDTAVYYCATEYYWNIDNWGQGTLVTVSSESPFPPNLTSGQAGQHHHHHHGAYPYDVPDYAS
notes: Canine scFv (VL-linker-VH); also called P3-33; P4-01
B9: scFv 17 (scFv)
scFv: QPVLTQPPSVSAALGQRVTISCTGSKTNIGSGYDVQWYQQLPGKSPKTIIYGNSNRPSGVPARFSGSKSGSIATLTITGIQAEDEADYYCQSFDDNVDGYVFGSGTQLTILGGGSSRSSSSGGGGSGGGGEVPLVESGGDLVKPGGSLRLSCVASGFTFSSYGMSWVRQAPGKGLQWVAYINGGGSSTSYADAVRGRFTISRDNAENTLYLQMNSLRADDTAVYYCSNYYGIYWDSDYWGQGTLVTVSSESPSPPNLTSGQAGQHHHHHHGAYPYDVPDYAS
notes: Canine scFv (VL-linker-VH); also called P4-05A; P4-05B
B10: scFv 18 (scFv)
scFv: QSALTQTASVSGSLGQKVTISCTGSRSNIGANYVGWYQQVPGIGPRTVIFGYNYRPSGVPDRFSSSKSGNSATLTISGLQAEDEAEYYCSTWDSSLNAYVFGSGTQLTVLGGGSSRSSSSGGGGSGGGGEVPLVESGGDLVKPGGSLRLSCVASGFTLSNYGMSWVRQSPGKGLQWVAAIRSGGNTYYADAVKGRFTISRDNAKNTLYLQMNSLRAEDTAVYYCASQWGDWGHFEYWGQGTLVTVSSASTTAPSVTSGQAGQHHHHHHGAYPYDVPDYAS
notes: Canine scFv (VL-linker-VH); also called P4-12
B11: scFv 19 (scFv)
scFv: QAVLTQPASVSGPLGQRVTISCSGSTNNIGIVGAAWYQQFPGKAPKLLVYSDGSRPSGVPDRFSGSNSGNSATLTISGLQAEDEADYYCQSVDATHGTILFGGGTQLTVLGGGSSRSSSSGGGGSGGGGEVQLVETGGDLVKPAGSLRLSCAASGFPFSGYSMTWVRQAPEKGLQLVAGINSDGSHTYYTDDVKGRFTVSRDNTKYILYLQMNSLRVEDTAIYYCGSHSWGNFHYWGQGTLVTVSSESPSPPNLTSGQAGQHHHHHHGAYPYDVPDYAS
notes: Canine scFv (VL-linker-VH); also called P3-35
B12: scFv 2 (scFv)
scFv: SYVLTQSPSLSGSLGQKVTISCTGSRSNLGGNYVGWYQQVPGMAPRNVIYANDFRPSRIPARFSASKSGTSATLTISGLQAEDEADYFCSSWDDDLGSHVFGSGTQLTILGGGSSRSSSSGGGGSGGGGEEQLVEFGGDLVKPGGSLRLSCVASGFSFSSYDMSWVRQAPGKGLQWVASTNFDGSRTYYTDAVEGRFTISRDNARNTVYLQMNSLRAEDTAVYYCARGMGSWGASTFGYWGQGTLVTVSSASTTAPSVTSGQAGQHHHHHHGAYPYDVPDYAS
notes: Canine scFv (VL-linker-VH); also called scFv_02; P3-21
B13: scFv 20 (scFv)
scFv: QSVLNQPPSVSVSLGQTATISCSGESLSKYYAQWFQQKAGQVPVLVIYKDTERPSGIPDRFSGSSSGNTHTLTISGARAEDEADYYCESEVSPDTIVFGGGTHLTVLGGGSSRSSSSGGGGSGGGGEVQLVESGGDLVKPGGSLRLSCVASGFTFSSYAMSWVRQAPGEGLQWVAYINSAGSTTYYADAVKGRFTISRDNARNTVYLQMNSLRAEDTAVYYCGRYYYGLDYWGPGTSVFVSSESPSPPNLTSGQAGQHHHHHHGAYPYDVPDYAS
notes: Canine scFv (VL-linker-VH); also called P3-12
B14: scFv 21 (scFv)
scFv: QPVLTQPPSVSVSLGQTATISCSGESLSKYYAQWFQQKAGQAPVLVIYKDTERPSGIPDRFSGSSSGNTHTLTISGARAEDEADYYCESAVSSDTAVFGSGTQLTVLGGGSSRSSSSGGGGSGGGGEVQLVESGGDMVKPGGSLRLSCVASGFTFSSFWMYWVRQAPGKGLQWVGGINSGGSITSYADAVKGRFTISRDNARNTLYLQMDSLRDEDTAVYYCAKPDIYGSFDHWGQGTLVTVSSESPSPPNLTSGQAGQHHHHHHGAYPYDVPDYAS
notes: Canine scFv (VL-linker-VH); also called P3-04; P3-34
B15: scFv 22 (scFv)
scFv: QPVLTQPPSVSGSLGQRVTISCTGSSSNVGYGDYVGWYQQLPGTSPRTLIYSSSSRPSGVPDRFSGSRSGSTATLTISGLQAEDEADYHCSSYDTSLNGFVFGSGTQLTILGGGSSRSSSSGGGGSGGGGELTLQESGPGLVKPAQTLSLTCTVSGDSVTSSHFWHWIRQRPGRGLEWMGYWSDITIYSPTFQGRISITVDTARNQFSLHLNSVTTEDSAVYFCARYNGYVDYLDVWGQGTLITVSSASTTAPSVTSGQAGQHHHHHHGAYPYDVPDYAS
notes: Canine scFv (VL-linker-VH); also called P3-09; P3-11
B16: scFv 23 (scFv)
scFv: DIVMTQTPLSLSVSPGEPASISCKASQSLLHSNGNTYLYWFRQKPGQSPQRLIYLVSNRDAGVPDRFSGSGSGTDFTLRISRVEADDSGIYYCGQGKQDPITFGEGTHLEIKGGSSRSSSSGGGGSGGGGELTLQESGPGLVKPSQTLSLTCVVSGGSVTTSDYWNWLRQRPGRGLEYMGYWKGRTEYNPAFQGRISITADTAKNQFSLQLNSVTADDTAIYYCAHWGSGNLDYWGPGTLVTVSSESPSPPNLTSGQAGQHHHHHHGAYPYDVPDYAS
notes: Canine scFv (VL-linker-VH); also called P3-37
B17: scFv 25 (scFv)
scFv: DIVMTQTPLSLSVSPGETASISCKASQSLLHSNGNTYLNWFRQKPGQSPQVLIYQVSNRDTGVPDRFSGSGSGTDFTLRISRVEADDAGVYYCGQGIQYPPTFGAGTKVELKGGSSRSSSSGGGGSGGGGEEQLVEFGGDLVKPGGSLRLSCVASGFTFSSLSMNWIRQAPGKGLQWVSQISPDGTITGYTDAVKGRFTISRDNAKNTLYLQMNSLRDEDTAIYYCAKSRYTDTYPFDYWGPGTLVTVSSESPSPPNLTSGQAGQHHHHHHGAYPYDVPDYAS
notes: Canine scFv (VL-linker-VH); also called P3-40

Target: T1, human CD19 protein with a biotinylated …
Test: phage ELISA, biotinylated AviTag CD19 on streptavidin wells; signal ratio to FMC63 standard
Excerpt: To identify unique human CD19-binding monoclonal scFv from the panned libraries, individual phage antibody clones were expanded, assessed for binding to CD19 by ELISA, and subjected to nucleotide sequencing to identify those clones that were unique. A total of 84 scFvs were randomly selected from the panned libraries (70 from P3 and 14 from P4).

Binder | ELISA hCD19 (ratio FMC63)
B1 | 0.84 ratio to FMC63
B2 | 0.77 ratio to FMC63
B3 | 0.31 ratio to FMC63
B4 | 0.16 ratio to FMC63
B5 | 0.28 ratio to FMC63
B6 | 0.59 ratio to FMC63
B7 | 0.99 ratio to FMC63
B8 | 0.41 ratio to FMC63
B9 | 0.66 ratio to FMC63
B10 | 0.27 ratio to FMC63
B11 | 0.26 ratio to FMC63
B12 | 0.49 ratio to FMC63
B13 | 0.47 ratio to FMC63
B14 | 0.71 ratio to FMC63
B15 | 0.21 ratio to FMC63
B16 | 0.36 ratio to FMC63
B17 | 0.15 ratio to FMC63
